Measurements published in publication PMC9525012, “Characterization of sabatolimab, a novel immunotherapy with immuno-myeloid activity directed against TIM-3 receptor” (Immunotherapy Advances, 2022).
Several values for one entry are separate records, joined by “and”; a condition that tells them apart may be missing. Equal entries are not always repeated.

Experiments:
[1] = molecular target: human TIM-3-Fc fusion protein (human) (UniProt Q8TDQ0); test: other; competition with SULFO-TAG galectin-9, MSD
[2] = molecular target: T1, human TIM-3 expressed on 300.19 cells (human, UniProt Q8TDQ0 22-301); test: flow cytometry on cells; 300.19 cells expressing human or cynomolgus TIM-3 incubated with titrated sabatolimab at 4°C for 4 hours; PE anti-hIgG secondary; Kd from best-fit binding curves (GraphPad Prism); conditions: one partner purified
T1 construct: TIM-3, human, expressed on the surface of 300.19 cells; Also used for the functional rows on cells that express human TIM-3 (Raji hTIM-3 o.e., HNT-34, dendritic cells); source: 300.19 cells engineered to express human TIM-3 (lab of Gordon Freeman)

[3] = molecular target: T2, recombinant human TIM-3/His (human, UniProt Q8TDQ0 22-202); test: SPR; Biacore; sabatolimab captured (~50 RU) by a human Fab capture antibody amine-coupled on a CM5 chip; TIM-3/His as analyte, 90 nM diluted 1:3, seven concentrations, HBS-EP+ buffer; 1:1 binding model, double reference subtraction; conditions: both partners purified
T2 construct: T-cell immunoglobulin domain and mucin domain-3 (TIM-3), human; Probably the extracellular domain (surmised); also called human recombinant TIM-3; source: bought: Sino Biological Inc

[4] = molecular target: cynomolgus monkey TIM-3 expressed on 300.19 cells (cynomolgus monkey); test: flow cytometry on cells; 300.19 cells expressing human or cynomolgus TIM-3 incubated with titrated sabatolimab at 4°C for 4 hours; PE anti-hIgG secondary; Kd from best-fit binding curves (GraphPad Prism)

IC50 [1] [nM]	Kd [2] [nM]	Kd [3]	Kd [4] [nM]	Molecule
9.81				sabatolimab Fab'2
	0.5 ± 0.1	0.176 nM and 0.162 nM and 0.163 nM	0.9	Sabatolimab, humanized anti-TIM-3 monoclonal antibody (hIgG4, S228P) (antibody, V domains shown, whole heavy chain as printed; whole kappa light chain as printed; IgG4/kappa; humanized from the murine monoclonal antibody 22C1; also called MBG453; sabatolimab whole antibody; source: CHO cells, transiently produced (told of the ten selected humanized clones)) VH: QVQLVQSGAEVKKPGSSVKVSCKASGYTFTSYNMHWVRQAPGQGLEWMGDIYPGNGDTSYNQKFKGRVTITADKSTSTVYMELSSLRSEDTAVYYCARVGGAFPMDYWGQGTTVTVSS VL: AIQLTQSPSSLSASVGDRVTITCRASESVEYYGTSLMQWYQQKPGKAPKLLIYAASNVESGVPSRFSGSGSGTDFTLTISSLQPEDFATYFCQQSRKDPSTFGGGTKVEIKR
